# Experimental data taken from the nanobody polyreactivity screen of Harvey et al. (2022).
# Assay: yeast display, Sf9 membrane polyspecificity reagent, FACS + sequencing; frameworks hold sequencing errors
# In short: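 After 36–48 hours of galactose induction, yeast (Saccharomyces cerevisiae BJ5465) displaying a synthetic nanobody library were stained at 4 °C for 1 hour with 10% biotinylated, detergent-solubilized Sf9 membrane reagent. Streptavidin microbeads enriched the stained cells before FACS sorting into low and high (top ~1%) gates on anti-HA and streptavidin fluorescence. Each clone's polyreactivity label reflects its gate of origin.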
row,Sequence,polyreactivity (PSR sort gate)
1,QVQLVESGGGLVQAGGSLRLSCAASGSIFPSYAMGWYRQAPGKERELVATIGRGGTTNYADSVKGRFTISRDNAKNTVYLQMNSLKPEDTAVYYCNAERIWRYKYGYDYWGQGTQVTVSS,high polyreactivity
2,QVQLVESGGGLVQAGGSLRLSCAASGSIFPVNAMGLYRQAPGKERELVAAITASGDSTYYADSVKGRFTISRDNAKNTVYLQMNSLKPEDTAVYYCNADGSYENREVYSFYYWGQGTQVTVSS,low polyreactivity
3,QVQLVESGGGLVQAGGSLRLSCAASGSIFPVYAMGWYRQAPGKERELVAAITWRSGSTYYADSVKGRFTISRDNAKNTVYLQMNSLKPDDTAVYYCAKVPTYRFDHWGQGTQVTVSS,high polyreactivity
4,QVQLVESGGGLVQAGGSLRLSCAASGSIFPWYAMGWYRQAPGKERELVAAISTGGSTYYADSVKGRFTISRDNAKNTVYLQMNSLKPEDTAVYYCAAAYGKYRFGYWGQGTQVTVSS,high polyreactivity
5,QVQLVESGGGLVQAGGSLRLSCAASGSIFPYNAMGWYRQAPGKERELVAAISISGGSTYYADSVKGRFSISRDNAKNTVYLQMNSLKPEDTAVYYCAARQSLSSAFDYWGQGTQVTVSS,low polyreactivity
6,QVQLVESGGGLVQAGGSLRLSCAASGSIFPYYAMGWYRPAPGKERELVAAISSGGSTNYADSVKGRFTISRDNAKNTVYLEMNSLKPEDTAVYYCAARWSRLFRHRVNYWYDYWGQGTQVTVSS,high polyreactivity
7,QVQLVESGGGLVQAGGSLRLSCAASGSIFPYYAMGWYRQAPGKERELVAAISSGGSTNYADSVKGRFTISRDNAKNTVYLQMNSLKPEDTAEYYCAARWSRIFRDRVKYWYDYWGQGTQVTVSS,low polyreactivity
8,QVQLVESGGGLVQAGGSLRLSCAASGSIFPYYAMGWYRQAPGKERELVAAITYIGGDTYYADSVKGRFTISRDNAKNTVYLQMNSLKPEETEVYYCNRPSSLAWPWTGSFSRYDYWGQGTQVTVSS,low polyreactivity
9,QVQLVESGGGLVQAGGSLRLSCAASGSIFPYYAMGWYRQAPGKEWEFVAAISRRGGSTNYADSVKGRFTISRDTAKNTVYLQMNSLKPEDTAVYYCGKYTSYSRGYDYWGQGTQVTVSS,high polyreactivity
10,QVQLVESGGGLVQAGGSLRLSCAASGSIFPYYAMGWYRQSPGKERELVASSNQSDGTTYYADSVKGRFTISRDNAKNTVYLQMNSLKPEDTAVYYCAADTTLQAFIRYRPIGSYDSWGQGTQVTVSS,low polyreactivity
11,QVQLVESGGGLVQAGGSLRLSCAASGSIFPYYVMGWYRQAPGKERELVAAISWSGASTYYADSVKGRFTISRDNAKNTVYLQMNSLKPEDTAVYYCAKYSSHFENDYWGQGTQVTVSS,low polyreactivity
12,QVQLVESGGGLVQAGGSLRLSCAASGSIFQAYAMGWYRQAPGKERELVASISSGGGTNYADSVKGRFTISRDNAKNTVYLQMNSLKPEDTAVYYCAADVYLVKYDYWGQGTQVTVSS,low polyreactivity
13,QVQLVESGGGLVQAGGSLRLSCAASGSIFQGYPMGWYRQAPGKERELVATIRWSSGSRTNYADSVKGRFTISRDNAKNTVYLQMNSLKPEDTAVYYCAAGSRRYKYDYWGQGTQVTVSS,high polyreactivity
14,QVQLVESGGGLVQAGGSLRLSCAASGSIFQHYAMGWYRQAPGKERELVAAISYDTTSTYYADSVKGLFTISRDNAKNTVYLQMNSLKPEDPAVYYCNTDPEVYGPFQYDYWGQGTQVTVSS,low polyreactivity
15,QVQLVESGGGLVQAGGSLRLSCAASGSIFQHYAMGWYRQAPGKVRELVAAISSDTTSTYYADSVKGRFTISRDNAKNTVYLQMHSLKPEDTAVYYCNTYPEVYGPFQYDYWGQGTQVTVSS,low polyreactivity
16,QVQLVESGGGLVQAGGSLRLSCAASGSIFQKNAMGWYRQAPGKERELVAVITRGGTSTYYADSVKGRFTISRDNAKNTVYLQMNSLKAEDTAVYSCAAKADKRLDYWGQGTQVTVSS,low polyreactivity
